From publication PMC10980420, “Abscisic acid–induced transcription factor PsMYB306 negatively regulates tree peony bud dormancy release”

Tests used:
PsMYB306 [1] = target: T1, PsMYB306 (Paeonia suffruticosa, UniProt A0A7M3T7P1 1-327); test: EMSA; LightShift EMSA Optimization and Control Kit (Pierce); buffer, salt, pH and temperature not stated; conditions: protein: recombinant; tags: His (pET28a, BamHI/HindIII); label: biotin (5' of strand 1 as printed, Bio-); blunt
PsMYB306 [2] = target: T1, PsMYB306; test: competition; unlabeled competitor at 50- and 100-fold against N1; signal attenuated; LightShift EMSA Optimization and Control Kit (Pierce); buffer, salt, pH and temperature not stated; conditions: protein: recombinant; tags: His (pET28a, BamHI/HindIII); label: none; blunt

T1 sequence (A0A7M3T7P1 entry or part of it): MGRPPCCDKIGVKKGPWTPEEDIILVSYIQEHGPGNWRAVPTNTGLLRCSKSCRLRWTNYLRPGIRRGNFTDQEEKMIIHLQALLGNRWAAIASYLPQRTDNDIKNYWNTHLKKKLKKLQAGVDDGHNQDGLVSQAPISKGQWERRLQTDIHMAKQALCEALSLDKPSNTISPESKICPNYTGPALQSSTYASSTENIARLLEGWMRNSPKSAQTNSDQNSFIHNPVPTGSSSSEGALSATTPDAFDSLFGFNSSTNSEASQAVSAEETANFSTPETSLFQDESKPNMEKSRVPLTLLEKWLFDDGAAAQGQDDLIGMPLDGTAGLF

B1: pPsNCED3 mutant probe (dsDNA)
DNA 1: ACTTAGGATTACTCAGCCATAACTTCCTTCTT
DNA 2: AAGAAGGAAGTTATGGCTGAGTAATCCTAAGT
binding result (PsMYB306 [1]): no binding

B2: pPsNCED3 WT probe (dsDNA)
DNA 1: ACTTAGGATTACTAGTTAATAACTTCCTTCTT
DNA 2: AAGAAGGAAGTTATTAACTAGTAATCCTAAGT
binding result (PsMYB306 [1]): binds

B3: pPsNCED3 WT cold competitor (dsDNA)
DNA 1: B2 DNA 1
DNA 2: B2 DNA 2
binding result (PsMYB306 [2]): binds
